In US20260224620A1 (published 2026):

Molecular target: CD47 WT (YSD CD47) (UniProt Q08722 19-135)
Experiment: flow cytometry, yeast surface display

B1: B6H12 (antibody, V domains shown)
VH: EVQLVESGGDLVKPGGSLKLSCAASGFTFSGYGMSWVRQTPDKRLEWVATITSGGTYTYYPDSVKGRFTISRDNAKNTLYLQIDSLKSEDTAIYFCARSLAGNAMDYWGQGTSVTVSS
VL: DIVMTQSPATLSVTPGDRVSLSCRASQTISDYLHWYQQKSHESPRLLIKFASQSISGIPSRFSGSGSGSDFTLSINSVEPEDVGVYYCQNGHGFPRTFGGGTKLEIK
Kd: ~0.33 nM
